Results published in article doi:10.1101/2022.01.28.478199.
Several values for one entry are separate records, joined by “and”; a condition that tells them apart may be missing. Identical values can stand only once.

Biological target: Hsp78TR-6xHis (Hsp78 E216Q/E614Q Walker B mutant with a C-terminal 6x polyhistidine-tag) (S. cerevisiae) (UniProt P33416)
Assay: native gel or EMSA

For “Hsp78TR-6xHis (Hsp78 E216Q/E614Q Walker B mutant with a C-terminal 6x polyhistidine-tag) (from UniProt P33416 45-811) (natural protein)”, the stoichiometry N was 3 and 6.
